Laboratory results from patent US20120108492A1 (REGENTS OF THE UNIVERSITY OF COLORADO, published 2012).

Molecular target: wild-type recombinant EBV gp350 (residues 1-470 of EBV gp350/220, BCCP, myc, hexa-histidine) (Epstein-Barr virus (B95-8); Escherichia …, UniProt P03200 1-470; P0ABD8 70-156)
Assay: ELISA, wild-type gp350 on plate, MBP-CR2 SCR1-2 mutant in solution

Sequence of wild-type recombinant EBV gp350 (residues 1-470 of EBV gp350/220, BCCP, myc, hexa-histidine) (P03200 1-470, tags or fused parts left off): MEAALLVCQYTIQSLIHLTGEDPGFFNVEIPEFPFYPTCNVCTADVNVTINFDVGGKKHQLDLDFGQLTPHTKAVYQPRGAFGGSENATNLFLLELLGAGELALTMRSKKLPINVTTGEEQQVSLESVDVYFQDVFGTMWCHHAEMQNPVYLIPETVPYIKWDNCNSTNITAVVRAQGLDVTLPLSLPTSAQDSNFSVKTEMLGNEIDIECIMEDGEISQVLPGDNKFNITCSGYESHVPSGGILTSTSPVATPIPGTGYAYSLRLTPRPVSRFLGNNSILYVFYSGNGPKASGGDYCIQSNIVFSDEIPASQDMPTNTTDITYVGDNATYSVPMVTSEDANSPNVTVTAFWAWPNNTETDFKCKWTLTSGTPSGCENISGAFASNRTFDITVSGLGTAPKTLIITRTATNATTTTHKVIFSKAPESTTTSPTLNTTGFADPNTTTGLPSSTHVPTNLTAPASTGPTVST

B1: MBP-CR2 SCR1-2 K67A (receptor)
chain: ISCGSPPPILNGRISYYSTPIAVGTVIRYSCSGTFRLIGEKSLLCITKDKVDGTWDKPAPKCEYFNAYSSCPEPIVPGGYKIRGSTPYRHGDSVTFACKTNFSMNGNKSVWCQANNMWGPTRLPTCVSVFPLE
notes: not shown: MBP tag encoded by pMAL-p2x and the vector linker between MBP and CR2
- decrease in EBV gp350 binding relative to wild-type: ~20%
